Assays:
L6 antigen (human) [1] = target: L6 antigen (human) (UniProt P30408); experiment: inhibition of the binding of FITC-labelled mouse L6 to 3347 cells, flow cytometry; 50% inhibition; run with the pooled chimeric L6
L6 antigen (human) [2] = target: L6 antigen (human) (UniProt P30408); experiment: inhibition of the binding of FITC-labelled mouse L6 to 3347 cells, flow cytometry; 50% inhibition; run with the chimeric L6 from ascites
L6 antigen (human) [3] = target: L6 antigen (human) (UniProt P30408); experiment: cell-based or functional assay
L6 antigen (human) [4] = target: L6 antigen (human) (UniProt P30408); experiment: inhibition of the binding of FITC-labelled mouse L6 to 3347 cells, flow cytometry; 50% inhibition

UniProt P30408, sequence (P30408 whole entry): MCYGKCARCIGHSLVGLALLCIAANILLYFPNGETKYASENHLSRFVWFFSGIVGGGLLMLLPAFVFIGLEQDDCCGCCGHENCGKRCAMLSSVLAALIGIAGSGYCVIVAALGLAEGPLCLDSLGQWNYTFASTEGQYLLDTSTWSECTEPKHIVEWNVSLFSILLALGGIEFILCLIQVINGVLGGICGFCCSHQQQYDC

Substance | IC50 (L6 antigen (human) [1]) [µg/mL] | IC50 (L6 antigen (human) [2]) [µg/mL] | tumor killing activity (ADCC or CDC) (L6 antigen (human) [3]) [µg/mL] | IC50 (L6 antigen (human) [4]) [µg/mL]
L6 monoclonal antibody (mouse, IgG2a) | 2 | 2.7 | – | –
chimeric L6 antibody (from UniProt P01857 1-330) | – | – | 0.01 | 3.4
